# Results reported in article PMC3526283, “DNA-binding determinants promoting NHEJ by human Polµ”.
# B1: 1-nt gap Sp1C/T28/D12, 5'-P (dsDNA)
# DNA 1: AGAAGTGTATCTCGTACTCACTGTGATC
# DNA 2: GATCACAGTGAGTAC
# DNA 3: AGATACACTTCT
# modifications: 5'-phosphate on D12 (S3)
# B2: 3'-protruding end GT/NHEJ-D, 5'-P (dsDNA)
# DNA 1: CCCTCCCTCCCGT
# DNA 2: GGGAGGGAGGG
# modifications: 5'-phosphate on NHEJ-D (S15)
# B3: footprint 1-nt gap FP-T/FP-P/FP-D, 5'-P (dsDNA)
# DNA 1: GGCAGCTTGGATCTTGTCGAAAAACGTCAACATTCGCCTAGGCTTCGGCAATACTGAGGTCTTGTCGAAAAACGTCAACATTGCGTGGCC
# DNA 2: GGCCACGCAATGTTGACGTTTTTCGACAAGACCTCAGTAT
# DNA 3: GCCGAAGCCTAGGCGAATGTTGACGTTTTTCGACAAGATCCAAGCTGCC
# modifications: 5'-phosphate on FP-D (S10)
# B4: 3'-protruding end GT/NHEJ-D, 5'-OH (dsDNA)
# DNA 1: CCCTCCCTCCCGT
# DNA 2: GGGAGGGAGGG
# B5: 1-nt gap Sp1C/T28/D12, 5'-OH (dsDNA)
# DNA 1: AGAAGTGTATCTCGTACTCACTGTGATC
# DNA 2: GATCACAGTGAGTAC
# DNA 3: AGATACACTTCT
# Assays:
# [1] = molecular target: T1, DNA polymerase beta (Polβ) (Homo sapiens, UniProt P06746 1-335); assay: EMSA; 100 nM protein; EMSA: 50 mM Tris-HCl pH 7.5, 0.1 mg/ml BSA, 1 mM DTT, 4% glycerol, 5 nM DNA, 10 min at 30°C; footprinting: same buffer, 30 nM DNA, 37°C (2.5 mM MgCl2 and 100 µM)
# DNA polymerase mu (Polµ) [2] = molecular target: T2, DNA polymerase mu (Polµ) (Homo sapiens, UniProt Q9NP87 1-494); assay: EMSA; EMSA: 50 mM Tris-HCl pH 7.5, 0.1 mg/ml BSA, 1 mM DTT, 4% glycerol, 5 nM DNA, 10 min at 30°C; footprinting: same buffer, 30 nM DNA, 37°C (2.5 mM MgCl2 and 100 µM dNTP where stated); conditions: protein: recombinant, tags: pRSETA-hPolµ construct
# Polµ-ΔBRCT [3] = molecular target: T3, Polµ-ΔBRCT (Homo sapiens, UniProt Q9NP87 138-494); assay: EMSA; 5'-P assignment inferred: binding undetectable without it; EMSA: 50 mM Tris-HCl pH 7.5, 0.1 mg/ml BSA, 1 mM DTT, 4% glycerol, 5 nM DNA, 10 min at 30°C; footprinting: same buffer, 30 nM DNA, 37°C (2.5 mM MgCl2 and 100 µM dNTP where stated); conditions: protein: recombinant; tags: pRSETA construct; label: 32P; 3' overhang 2 nt (text says 3 nt), other end blunt
# [4] = molecular target: T1, DNA polymerase beta (Polβ); assay: DNase I footprinting; 100 µM dTTP, 2.5 mM MgCl2; protects positions 36-45; EMSA: 50 mM Tris-HCl pH 7.5, 0.1 mg/ml BSA, 1 mM DTT, 4% glycerol, 5 nM DNA, 10 min at 30°C; footprinting: same buffer, 30 nM DNA, 37°C (2.5 mM MgCl2 and 100 µM)
# Polµ H329G = Polµ H329G (Homo sapiens, UniProt Q9NP87 1-494, H329G); assay: DNase I footprinting; with/without dATP or dTTP; no expansion with nucleotide, no downstream BRCT extension; EMSA: 50 mM Tris-HCl pH 7.5, 0.1 mg/ml BSA, 1 mM DTT, 4% glycerol, 5 nM DNA, 10 min at 30°C; footprinting: same buffer, 30 nM DNA, 37°C (2.5 mM MgCl2 and 100 µM dNTP where stated); conditions: protein: recombinant; label: 32P at 5' end of FP-T; 1-nt gap, three strands; template FP-T, primer FP-P, downstream FP-D; otherwise blunt
# Polµ-ΔBRCT [5] = molecular target: T3, Polµ-ΔBRCT; assay: DNase I footprinting; protects 10 nt, no downstream extension; EMSA: 50 mM Tris-HCl pH 7.5, 0.1 mg/ml BSA, 1 mM DTT, 4% glycerol, 5 nM DNA, 10 min at 30°C; footprinting: same buffer, 30 nM DNA, 37°C (2.5 mM MgCl2 and 100 µM dNTP where stated); conditions: protein: recombinant; tags: pRSETA construct; label: 32P at 5' end of FP-T; 1-nt gap, three strands; template FP-T, primer FP-P, downstream FP-D; otherwise blunt
# DNA polymerase mu (Polµ) [6] = molecular target: T2, DNA polymerase mu (Polµ); assay: DNase I footprinting; 100 µM dTTP, 2.5 mM MgCl2; protects positions 36-52; EMSA: 50 mM Tris-HCl pH 7.5, 0.1 mg/ml BSA, 1 mM DTT, 4% glycerol, 5 nM DNA, 10 min at 30°C; footprinting: same buffer, 30 nM DNA, 37°C (2.5 mM MgCl2 and 100 µM dNTP where stated); conditions: protein: recombinant; tags: pRSETA-hPolµ construct; label: 32P at 5' end of FP-T; 1-nt gap, three strands; template FP-T, primer FP-P, downstream FP-D; otherwise blunt
# Polµ R387A = Polµ R387A (Homo sapiens, UniProt Q9NP87 1-494, R387A); assay: DNase I footprinting; footprint expands to primer side with dTTP; downstream extension only partly recovered with dTTP; EMSA: 50 mM Tris-HCl pH 7.5, 0.1 mg/ml BSA, 1 mM DTT, 4% glycerol, 5 nM DNA, 10 min at 30°C; footprinting: same buffer, 30 nM DNA, 37°C (2.5 mM MgCl2 and 100 µM dNTP where stated); conditions: protein: recombinant, label: 32P at 5' end of FP-T, 1-nt gap, three strands, template FP-T, downstream FP-D, otherwise blunt
# Polµ-ΔBRCT [7] = molecular target: T3, Polµ-ΔBRCT; assay: EMSA; 300 and 600 nM protein; EMSA: 50 mM Tris-HCl pH 7.5, 0.1 mg/ml BSA, 1 mM DTT, 4% glycerol, 5 nM DNA, 10 min at 30°C; footprinting: same buffer, 30 nM DNA, 37°C (2.5 mM MgCl2 and 100 µM dNTP where stated); conditions: protein: recombinant; tags: pRSETA construct; label: 32P; 3' overhang 2 nt (text says 3 nt), other end blunt
# [8] = label: 32P at 5' end of Sp1C, 1-nt gap, three strands, otherwise blunt
# [9] = label: 32P, 3' overhang 2 nt (text says 3 nt), other end blunt
# T2 sequence (Q9NP87 whole entry): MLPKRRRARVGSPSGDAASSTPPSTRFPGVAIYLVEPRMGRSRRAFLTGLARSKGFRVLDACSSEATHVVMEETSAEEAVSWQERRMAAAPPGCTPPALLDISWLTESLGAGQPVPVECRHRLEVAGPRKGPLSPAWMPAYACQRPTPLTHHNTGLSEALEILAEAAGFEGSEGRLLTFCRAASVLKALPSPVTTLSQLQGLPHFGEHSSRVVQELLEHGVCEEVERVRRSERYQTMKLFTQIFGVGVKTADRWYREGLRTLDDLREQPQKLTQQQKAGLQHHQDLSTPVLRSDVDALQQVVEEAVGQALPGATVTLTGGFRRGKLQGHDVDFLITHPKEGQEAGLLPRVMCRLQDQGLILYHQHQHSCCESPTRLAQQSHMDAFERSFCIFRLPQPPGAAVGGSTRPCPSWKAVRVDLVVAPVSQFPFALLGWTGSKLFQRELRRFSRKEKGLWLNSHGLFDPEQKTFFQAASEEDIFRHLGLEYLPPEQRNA
# T3 sequence (Q9NP87 138-494, stated change not applied): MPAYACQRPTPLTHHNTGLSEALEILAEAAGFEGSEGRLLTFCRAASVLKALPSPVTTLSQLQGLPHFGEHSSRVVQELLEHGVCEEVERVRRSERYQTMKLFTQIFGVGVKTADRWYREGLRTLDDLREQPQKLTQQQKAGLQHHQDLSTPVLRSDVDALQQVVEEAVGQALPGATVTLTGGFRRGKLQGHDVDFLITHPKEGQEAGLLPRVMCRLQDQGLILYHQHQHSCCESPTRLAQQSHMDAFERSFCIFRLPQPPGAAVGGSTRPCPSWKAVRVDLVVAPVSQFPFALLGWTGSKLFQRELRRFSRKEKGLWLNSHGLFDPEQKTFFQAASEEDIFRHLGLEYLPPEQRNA
# Chain of Polµ H329G (Q9NP87 whole entry H329G): as the sequence (Q9NP87 whole entry) above, with H329G counted along it
# Chain of Polµ R387A (Q9NP87 whole entry R387A): as the sequence (Q9NP87 whole entry) above, with R387A counted along it
binder,measurement,setting,value
B1,binding result,[1],binds
same,Kd,DNA polymerase mu (Polµ) [2]; [8],100 nM
B2,Kd,DNA polymerase mu (Polµ) [2]; [9],165 nM
same,Kd,Polµ-ΔBRCT [3],2000 nM
B3,binding result,[4],binds
same,binding result,Polµ H329G,binds
same,binding result,Polµ-ΔBRCT [5],binds
same,binding result,DNA polymerase mu (Polµ) [6],binds
same,binding result,Polµ R387A,binds
B4,binding result,Polµ-ΔBRCT [7],no binding
same,Kd,DNA polymerase mu (Polµ) [2]; [9],400 nM
B5,Kd,DNA polymerase mu (Polµ) [2]; [8],500 nM
